Assay: soluble on expression in E. coli; label from the status in PepcDB or PDB records

MMLITDTGVPERYIDTDEWGGEVMLRLDDGWCAALDRNTMMCTIYEKRPLICREFEAGAEDCLTERKGIATAYL
soluble on expression in E. coli: soluble

MTVRILAVCGNGQGSSMIMKMKVDQFLTQSNIDHTVNSCAVGEYKSELSGADIIIASTHIAGEITVTGNKYVVGVRNMLSPADFGPKLLEVIKAHFPQDVK
soluble on expression in E. coli: not soluble

MAGHVHKVAVRQLKLLRYRNYFSFNIRFSGQHVVFTGHNGSGKTNLLEALSFLSPGRGLRRAAYSDVSFANGGGEGFVVFARLECALYGEVNIGTALEMSDNSRKVHINGVNETGDCLTDYCHMSILTPSMDGLFTGSSLERRRFLDRMVLAIDPLHSRRIADYDRVMRARNRLFLDGNEDCAWFDALEKQMAELATAISAARIDVIRLLNDMLARTPSQLPFPRAFLQIDGFLEAALSKISAVEVEEQFCDRLQHNRAIDRAAGRTLEGPHRTDLQVFYADKNMAAASCSTGEQKALLTGLVLCHARLTGLMSERTPILLLDEIVAHLDSHRRAALFDILDDLGGQTFMTGTDPILFNALKGRAEFFAIKDGTLLQ
soluble on expression in E. coli: not soluble

MLMATMTPWYLYLIRTADNALYTGITTDVARRYRQHQTGKGAKALRGKGELTLAFAAQVGDRSLALRIEYRIKQLTKRQKERLVTEREAFEALLSSLQTPVLKND
soluble on expression in E. coli: not soluble

MSLTDSFTVRSIEGVCFRYPLATPVVTSFGKMLNRPAVFVRVVDEDGVEGWGEAWSNFPAPGAEHRARLINEVLAPGLVGRKLENPAQAFEVLSKGTEVLALQCGEPGPFAQAISGIDLALWDLFARRRNLPLWRLLGGQSSKIKVYASGINPGGAAQTAEAALKRGHRALKLKVGFGAETDIANLSALLTIVGAGMLAADANQGWSVDQALEMLPRLSEFNLRWLEEPIRADRPREEWRKLRANAKMPIAAGENISSVEDFEAALGDDVLGVIQPDIAKWGGLTVCVELARQILRVGKTFCPHYLGGGIGLLASAHLLAAVGRDGWLEVDANDNPLRDLFCGPVADVREGTIELNQNPGLGIVPDLSAIERYRSIEGHHHHHH
soluble on expression in E. coli: not soluble

MTNDLADIKLYDQNPDEAAIERLHHRLALVMKNQDASLVATSDPKELERVEKWVQDVLGADEQSAKRGVSKVADMMSGDRRKSRMTFYYLVAKQLNALHKI
soluble on expression in E. coli: not soluble

AIETETLVVGAGPGGYVAAIRAAQLGQKVTIVEKGNLGGVCLNVGCIPSKALISASHRYEQAKHSEEMGIKAENVTIDFAKVQEWKASVVKKLTGGVEGLLKGNKVEIVKGEAYFVDANTVRVVNGDSAQTYTFKNAIIATGSRPIELPNFKFSNRILDSTGALNLGEVPKSLVVIGGGYIGIELGTAYANFGTKVTILEGAGEILSGFEKQMAAIIKKRLKKKGVEVVTNALAKGAEEREDGVTVTYEANGETKTIDADYVLVTVGRRPNTDELGLEQIGIKMTNRGLIEVDQQCRTSVPNIFAIGDIVPGPALAHKASYEGKVAAEAIAGHPSAVDYVAIPAVVFSDPECASVGYFEQQAKDEGIDVIAAKFPFAANGRALALNDTDGFLKLVVRKEDGVIIGAQIIGPNASDMIAELGLAIEAGMTAEDIALTIHAHPTLGEIAMEAAEVAL
soluble on expression in E. coli: soluble

MGSDKIHHHHHHMPLLDIRNLTIELNTNNTKVKVLEKVSLTLNAGEIHGLVGESGSGRSLLAKAILGALGPQWTVIADRLMLDGKNLLDMSPKQRRCLMGSDIAMIFQDPSGSLDPVKTIGSQLIESMTPNKAVAFWRRGKDTYLNALKWLHKVGIKNPKSLMSCYPWELSEGECQKVMIAMAIANRPKLLIADEPTNSVELNAQAQIFRLLSQLNQLQNVSILLISHELETLVQWCDHLTVLYGGQVMESGPTDEMIAHPFHPYTKALLKNLPDYTGKMRHKSYLPTLQGSSPSLHNMPAGCRLGPRCPEAQRNCVKQPALEHQKDRYFACHFPYLNEQDTDDDAIA
soluble on expression in E. coli: not soluble

GHMASVTRAVFGELPSGGGTVEKFQLQSDLLRVDIISWGCTITALEVKDRQGRASDVVLGFAELEGYLQKQPYFGAVIGRVANRIAKGTFKVDGKEYHLAINKEPNSLHGGVRGFDKVLWTPRVLSNGVQFSRISPDGEEGYPGELKVWVTYTLDGGELIVNYRAQASQATPVNLTNHSYFNLAGQASPNINDHEVTIEADTYLPVDETLIPTGEVAPVQGTAFDLRKPVELGKHLQDFHLNGFDHNFCLKGSKEKHFCARVHHAASGRVLEVYTTQPGVQFYTGNFLDGTLKGKNGAVYPKHSGFCLETQNWPDAVNQPRFPPVLLRPGEEYDHTTWFKFSVA
soluble on expression in E. coli: soluble

MGSDKIHHHHHHMFKKLAADLTGFSDIGQVIHPDDFDKAAADDYVLHEDGEKIYFLIKSKTDEYCFTNLALVHLDGESAVSSKRVLYRYPYAHYPIRHVMFETAGTVDLDVEIKFEIGGKHYSIDVDKKQLEHVKDLYKALLAIAEKQYEGQKMLEFANSSLNHSVTILGGLRQGDMNVPQTFKDLSQESFDWLQGHYYKWNQKDFGSFYEKYINN
soluble on expression in E. coli: not soluble

MGHHHHHHGGHMSLTDVNVKIDIMHPQPIVGLGNPAIFVQGSTQNYKEYTSLETLAKDFATTTTVYKKAEIIWKQENKPQTIAVVTFVADTPTSPEQPDSLIAGSGIIAAATSYFYNDWHFALLANFVEADALALSNLIEENEFKFLVIQTATVDELTVFTGNNLTIGLVHPLEEFLDAALIGNTASLTVGSVTWKFRHNLVGITPNTLTTSQLQAIEKANAIAYVSKAGIPQTSEGKTMSGEFIDALHGDHWVKSNIETNVQRLLSTTDKLTFDSNGIALLDTTVANVLETAFNNGIVDIVDETGVGNYSVTALGRQDLNPDDIAARNYKGLSFKYKRSGAIHTVDVTGTIEVEGGS
soluble on expression in E. coli: soluble

MGSDKIHHHHHHLYRIFRPIARFIVWVLNGHLHVHHKERLPEGTYILVAPHRNWWEPILFALAASPTEFMFMTKQELFKNPVLRWILNNAHAFPVNREHPSPSVIKIPVRGLKSEGLSLIMFPSGTRHSASLKSGALVIARMSGRPLLPAVYQGPLTFKGVLQRKGIEINFGNPIVIDRKTKLTPETEAAYNQQLEDAWKQIDQELDPDFHYEAK
soluble on expression in E. coli: not soluble

MNDEINEPPPNICEQCLGDEANIRMTKIPQGSECKICTLPFTLYHFKTSKRSNNIIKTLICVRCATQRNICQCCMLDSRWHIPIQLRDHLISLVNEENVMTEEAKNDMMKRFLSLKNVKLGGAQITSDPSEADNIVDKLKNILLRATSDGPSTPLIKNTTALYKNEKGANEVKNLEKYASVDISHILKKLPLNESFLKNPSTKSFFLYNIDASIPEWKITDTVSQLLGIKKWKDGNSLSLIVNHKAKCGGLRFQSSELGERFVSKISETLVTPKGLKRGVLLIDRFRIFIIPWSSGFSAASFGTNTAENIKLSLSLNKLIQLELGLSFPTKSTDNAKNDKKKTSKKVHKDRSKKSKPRANKLTI
soluble on expression in E. coli: soluble

KSKLGSKLNLIRNYKNLGITLNYKNGFKNCKGEYIAVLEGDDYWIQKSKLKRQVSFLESNRDCSLVFNKIVLDYGDEKINNLIYPFNDIRKKFSARELVRSNFIQNFSCCMYRKSSIRKLRESIYDMVVYDWMFNMAVAQFGLIGYIPNYMTSHRILKSGLWSGKSKMENLQMISKCIDQYDSFFKYKYRKEFSQNKQEVLQALRRLVMVNENG
soluble on expression in E. coli: not soluble

MSLTGTDFHVGIVGLGSMGMGAARSCLRAGLSTWGADLNPQACANLLAEGACGAAASAREFAGVVDALVILVVNAAQVRQVLFGEDGVAHLMKPGSAVMVSSTISSADAQEIAAALTALNLNMLDAPVSGGAVKAAQGEMTVMASGSEAAFTRLKPVLDAVASNVYRISDTPGAGSTVKIIHQLLAGVHIAAAAEAMALAARAGIPLDVMYDVVTHAAGNSWMFENRMQHVVDGDYTPRSAVDIFVKDLGLVADTAKALRFPLPLASTALNMFTSASNAGYGKEDDSAVIKIFSGITLPGVTPEEGHHHHHH
soluble on expression in E. coli: soluble

MSLTFELYSGATFFRSRSAATKKVRDMQKERLKYVQEVYKVLATYVNFPKVCLPELIEKSIYEITEEEIVKKAEELRKIWGLDLISPVPNLIQLAEQNGVIISEANMSNPTLDAVSRWMIGRPFIMLTDNHESAVRRRFNVAHELGHILLHNGVESIHEYSQTELKNIIEYQANLFAAHFLLPSAAFSDSLLSISLEYYIDLKKYWKVSLQSMIQKIYTLALINDDQRLYLNKRIAKNKWKTKEPYDEQLTIEQPEVFQKVYHMILEHQVIPASQLNQAFKLPKEEIEKILGTAIQTEQDKTEIVLELLRSNKEGHHHHHH
soluble on expression in E. coli: soluble

MDNNLEIKDLEKIAKKVRYNIVKMVGLAKSGHPGGSLSATDIIVALYFKLMNYSPDNPYKKDRDRFVLSKGHAAPALYAVLSELGIIEEEELWKLRRLEGKLQGHPSMDTPGVEICTGSLGQGFSAAVGMALGCRLDKLNNYVYVLLGDGECQEGIVWEAAMAAAHYKLDNLIAFIDRNKLQIDGCTEDVMSLGDIKAKFEAFGWDVFEIDGHNFEEIINTVEKAKSMKNGKPKMIIAYTVKGKGVSFMENNVAFHGKAPNEEQLKQALEELSE
soluble on expression in E. coli: soluble

MGSDKIHHHHHHMTTLSDVAKEANVSKMTVSRVINHPEQVTPELRAMVEKAMEKLNYHPNSIAQALVNNRSNVVKFVTLEDIDTTEPYYTNLLFGFARGLNAKQYALQLVVDPTRIEKGRADGYLITGARNEDYDMFDKLDKPFVLFGENHRGYDFVDTDNQTAEKMATQYALDRLYKHIIFIGIDIKEPFEYSREAGYINTLQQHRLIPQIYRVSNHSHAAQKVIHEHFKEFKKDTCFICASDRIAVGVVRQLQDERARIPEDFGVIGFDGVFLDQVSNPKLTTIKQPIFEMGKMLAKMLLQKIDQSGSPQGELMVKPQLIRRETTR
soluble on expression in E. coli: not soluble

MKSHCNKMVGGELKPIIAALLPVEPFYPTQVPFVLSRYIYDVADRQQSSLDYVAVSALCALAAVIGNPHCS
soluble on expression in E. coli: not soluble

MNILVTGAKGFVGRNLCAQLNNIKNGKARCYGDLKIEEVFEYDIDSTSEQLDAWCQKADFVFNLAGVNRPKENVEFMKGNFGFASTLLDTLKKHHNTCPVMLSSSAQASLTGRFGNSEYGRSKKAGEDLFLQYGKDTGAKVLVYRFPNLYGKWCRPNYNSAVATFCNNIANDLPIQVSDSSVVLELLYIDDLVDEMIHALKGEEHHCEFEGLDVHPLVDGRYCYCPVTHKVTLGEIVDLLHQFAEMPKTLMIPEIPSDSFAKRLYSTYLSYLPKEKAIFDLKMNVDQRGSFTELVHTLNCGQVSINISKPGITKGEHWHNTKWEQFIVVSGHGLIQLRKEGTDEVLNYEVSGDKIQSVIMLPGYAHNIINLSDTEDLVTVMYCNEIFNPDKPDTYFDKVKK
soluble on expression in E. coli: not soluble

PAQDNSRFVIRDRNWHPKALTPDYKTSIARSPRQALVSIPQSISETTGPNFSHLGFGAHDHDLLLNFNNGGLPIGERIIVAGRVVDQYGKPVPNTLVEMWQANAGGRHRHKNDRYLAPLDPNFGGVGRCLTDSDGYYSFRTIKPGPYPWRNGPNDWRPAHIHFGISGPSIATKLITQLYFEGDPLIPMCPIVKSIANPEAVQQLIAKLDMNNANPMDCLAYRFDIVLRGQRKTHFENC
soluble on expression in E. coli: soluble

MSLGKATGFMEYDRIPSPGRDPKSRTRDWNEYSLPMPVADLTLQAARCMDCGVPFCSVGMEIKNGVSGCPLHNLIPEWNDAVYRGDWYEALQLLLKTNNFPEFTGRICPAPCEGGCTVAISEPAVGIKSIEKAIIDRGFEEGWIKPQPPKKRTGKRIAVIGSGPAGLACADQLNKAGHSVTVIEKSDRIGGLLMYGIPTMKLEKEQVTRRVNLMAEEGIEFVTGVAAGTDVTFAELRAEYDSIVLATGAGNARDIPLAGRDAAGIHFAVPYLTQSTRDNLDNGGVQTLSAKDKNVVIIGGGDTGADCVATALRQGAKSIYQFGIQDKLPELRNGENPWPQYPRVFKMDYAHEEAEAVYGRDPREYLINTTSFEKDAAGNLVGLHTVEVTEDKETRQYTPVEGSEKYFEVDMVLIAIGFSGTTEDIFTNFGVGKTERHTIDAAKGFYRTSEEGVFACGDARHGQSLVVTAIAEGREAAREVDFYLMGETFLEGHHHHHH
soluble on expression in E. coli: soluble

From the DeepSol protein solubility set
